Paper PMC2064468 (The Journal of Cell Biology, 2007)

Target: T1, FtsY (bacterial SRP receptor), wild type, as used in the GTPase assays (Escherichia coli, UniProt P10121 1-497)
T1 sequence (looked up): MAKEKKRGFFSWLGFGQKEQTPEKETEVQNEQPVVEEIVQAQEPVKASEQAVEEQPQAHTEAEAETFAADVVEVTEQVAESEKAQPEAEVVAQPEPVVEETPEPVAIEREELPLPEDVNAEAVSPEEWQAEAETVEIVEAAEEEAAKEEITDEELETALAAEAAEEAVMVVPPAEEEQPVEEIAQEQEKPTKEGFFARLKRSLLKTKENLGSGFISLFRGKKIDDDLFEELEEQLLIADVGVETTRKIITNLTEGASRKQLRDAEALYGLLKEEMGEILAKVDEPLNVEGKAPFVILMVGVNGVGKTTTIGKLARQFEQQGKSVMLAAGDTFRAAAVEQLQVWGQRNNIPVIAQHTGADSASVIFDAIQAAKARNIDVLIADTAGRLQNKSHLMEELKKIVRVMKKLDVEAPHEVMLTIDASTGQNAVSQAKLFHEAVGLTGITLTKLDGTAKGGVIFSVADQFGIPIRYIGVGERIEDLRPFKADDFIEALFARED
Assay: GTPase inhibition

B1: SRP with Ffh A144W (bound to the 4.5S SRP RNA) (natural protein, Escherichia coli, UniProt P0AGD7 1-453, looked up)
chain: MFDNLTDRLSRTLRNISGRGRLTEDNVKDTLREVRMALLEADVALPVVREFINRVKEKAVGHEVNKSLTPGQEFVKIVRNELVAAMGEENQTLNLAAQPPAVVLMAGLQGAGKTTSVGKLGKFLREKHKKKVLVVSADVYRPAWIKQLETLAEQVGVDFFPSDVGQKPVDIVNAALKEAKLKFYDVLLVDTAGRLHVDEAMMDEIKQVHASINPVETLFVVDAMTGQDAANTAKAFNEALPLTGVVLTKVDGDARGGAALSIRHITGKPIKFLGVGEKTEALEPFHPDRIASRILGMGDVLSLIEDIESKVDRAQAEKLASKLKKGDGFDLNDFLEQLRQMKNMGGMASLMGKLPGMGQIPDNVKSQMDDKVLVRMEAIINSMTMKERAKPEIIKGSRKRRIAAGCGMQVQDVNRLLKQFDDMQRMMKKMKKGGMAKMMRSMKGMMPPGFPGR
- Ki: 260 nM
